Data reported in patent US20050136044A1, “Butyrylcholinesterase variants that alter the activity of chemotherapeutic agents” (priority 2003, published 2005).

Assays:
[1] = in vitro; Pavillard et al. 2002; cited from earlier work
[2] = system: SW48 colon carcinoma cells; experiment: MTT cytotoxicity assay of CPT-11 activated by BChE variants; details: CPT-11 at 4 mM incubated 72 hours with enzyme, cells exposed at 0.5 mM for 72 hours, versus mock
Protocol: Clinically relevant concentrations of CPT-11 (0.5-10 mM) were exposed to BChE variants for 24-72 hours at 37° C. Briefly, CPT-11 at 4 mM was incubated for 72 hours with expressed wild-type BChE, the 6-6 variant, or F227A/L286Q variant. SW48 colon carcinoma cells were exposed to the activated CPT-11 at a concentration of 0.5 mM for 72 hours and cell viability measured by the MTT method. The MTT (3-(4,5-dimethylthiazolyl-2)-2,5-diphenyltetrazolium bromide) assay is commercially available and can be used to measure cell viability based on the ability of a cell to reduce a redox sensitive dye. Note the 6-6 variant is a quadruple mutant referenced as A328W/Y332M/S287G/F227A (SEQ ID NO: 16) in the nomenclature used throughout to describe variants. The 6-6 variant contains the following codons at variant positions: GCG encodes alanine at amino acid position 227, GGT encodes glycine at amino acid position 287, ATG encodes methionine at amino acid position 332, and TGG encodes tryptophane at amino acid position 328.

[3] = CPT-11 conversion to SN-38, fluorescent HPLC detection, conditioned media of transiently expressed BChE variants; assay type: biochemical; details: for CPT-11 conversion to SN-38 (SN-38 formation by HPLC), in words: 20 mM CPT-11, 72 hours, 37° C., versus mock / wild-type
Protocol: Butyrylcholinesterase variants were assayed for CPT-11 conversion activity using fluorescent High Performance Liquid Chromotography (HPLC) detection of SN-38 formation as described in Dodds and Rivory, Mol. Pharmacol. 56: 1346-1353 (1999), which is incorporated herein by reference. Briefly, conditioned media from transiently expressed BChE variants were exposed to 20 mM CPT-11 for 72 hours at 37° C. and analyzed by HPLC for SN-38 formation (peak at about 4 minutes column retention time).

[4] = cited from earlier work
[5] = BChE-mediated CPT-11 hydrolysis, SN38 quantitated by reverse-phase HPLC with fluorescence detection; Km by Hofstee plot; assay type: biochemical; details: 37° C., 24 hours, CPT-11 1-80 μM, Hofstee plot
Protocol: BChE plasmid variants were expressed transiently in the human embryonic kidney cell line 293T and assayed for activity at 72 hours post-transfection. Primary screening of variants was performed by indirect measurement of enzymatic activation of CPT-11 (FIG. 2) in SW48 colon carcinoma cell cytotoxicity assays. […] Functional hits identified in these assays were characterized by sequence analysis of the corresponding DNA from the original preps. […] Enzyme was incubated at 37° C. for 24 hours with CPT-11 over a range of concentrations from 1-80 μM. […] Velocity (v) is in light absorbance units at 540 nm. Substrate concentration [s] is μM CPT-11.
Samples were acidified and resolved by reverse-phase HPLC on a NovaPak C18 column to separate SN38 from unactivated CPT-11. SN38 peak area under the curve (AUC) was used to compare CPT-11 activation by the wild-type enzyme to the optimized BChE.4-1 variant.

[6] = o-nitrophenyl acetate (o-NPA) hydrolysis assay of antibody-captured butyrylcholinesterase variants (carboxylesterase activity); assay type: biochemical; details: antibody capture/normalization, absorbance 405 nm
Protocol: A modification of this assay that measures o-NPA activity of butyrylcholinesterase variants normalized by capturing with an anti-butyrylcholinesterase antibody was performed as described below.
Protocol to Determine Carboxylesterase activity of Captured Butyrylcholinesterase by o-Nitrophenyl acetate: • 1) Coat 96-well Immulon 2 plates with rabbit anti-human butyrylcholinesterase (Dako #A0032) at 10 mg/ml in PBS (100 ml/well) overnight at 4° C. • 2) Remove coating solution and block plate with 3% BSA in PBS (250 ml/well) for 2 hours at room temperature. • 3) Add 200 ml butyrylcholinesterase variant conditioned media and incubate at RT for 2 hrs. • 4) Wash plate 3 times with 250 ml/well PBS. • 5) Add 85 ml/well 0.1 M potassium phosphate pH 7.0 • 6) Add 13.6 mg o-NPA to 100 ml acetonitrile, mix to dissolve. Add 100 ml of this stock to 6.3 mls water and mix well. • 7) Wash plate 3 times with PBS. • 8) Add 15 ml of diluted o-NPA substrate. • 9) Read absorbance at 405 nm.
Conditioned media from butyrylcholinesterase variants that were transiently expressed in 293T cells was tested using the above described anti-butyrylcholinesterase antibody capture/normalization assay for carboxylesterase activity. […] The first variant shown in FIG. 1 is F227A (see left-most bar). The level of activity of the other variants can be compared to the level of activity of F227A. […]

CD20 = biological target: T1, CD20 (human, UniProt P11836 1-297); experiment: method not stated
T1 construct: whole, on cells; also called CD20 cell surface antigen; CD20 on SKW 6.4 human B lymphoma cells
T1 sequence (looked up): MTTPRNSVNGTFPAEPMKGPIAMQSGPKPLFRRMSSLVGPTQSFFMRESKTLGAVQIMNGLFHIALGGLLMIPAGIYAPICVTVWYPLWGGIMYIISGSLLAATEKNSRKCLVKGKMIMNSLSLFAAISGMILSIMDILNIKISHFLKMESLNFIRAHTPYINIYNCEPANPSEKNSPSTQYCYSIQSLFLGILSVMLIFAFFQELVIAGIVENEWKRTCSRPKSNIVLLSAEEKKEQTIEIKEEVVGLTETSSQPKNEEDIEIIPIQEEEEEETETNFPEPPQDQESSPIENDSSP

Molecule: CCc1c2c(nc3ccc(O)cc13)-c1cc3c(c(=O)n1C2)COC(=O)[C@]3(O)CC [SN38, 7-ethyl-10-hydroxycamptothecin]
- cytotoxicity relative to CPT-11 [1]: greater than 1000 fold

Molecule: F227A/L286Q
- CPT-11 mediated cytotoxicity in SW48 colon carcinoma cells [2]: increased tumor cell cytotoxicity
- Fold improvement in CPT-11 conversion ([3]; compared to wild-type butyrylcholinesterase, conditioned media exposed to 20 mM CPT-11 for 72 hours at 37° C., SN-38 by HPLC, conservative values): >10 fold
- CPT-11 conversion to SN-38 (SN-38 formation by HPLC), in words ([3]; conditioned media): increased CPT-11 conversion to SN-38

Molecule: CCc1c2c(nc3ccc(OC(=O)N4CCC(N5CCCCC5)CC4)cc13)-c1cc3c(c(=O)n1C2)COC(=O)[C@]3(O)CC [CPT-11, 7-ethyl-10-[4-(1-piperidino)-1-piperidine]carbonyloxycamptothecin]
- plasma concentrations of CPT-11 ([4]; patients treated with 200 mg/m2 CPT-11, for at least 24 hours, Ducreux et al. 2003): above 0.1 μM
- plasma peak concentration versus dose ([4]; single agent at up to 500 mg/m^2): dose-proportional

B1: wild-type butyrylcholinesterase (protein, UniProt P06276 29-602, looked up)
Cholinesterase: EDDIIIATKNGKVRGMNLTVFGGTVTAFLGIPYAQPPLGRLRFKKPQSLTKWSDIWNATKYANSCCQNIDQSFPGFHGSEMWNPNTDLSEDCLYLNVWIPAPKPKNATVLIWIYGGGFQTGTSSLHVYDGKFLARVERVIVVSMNYRVGALGFLALPGNPEAPGNMGLFDQQLALQWVQKNIAAFGGNPKSVTLFGESAGAASVSLHLLSPGSHSLFTRAILQSGSFNAPWAVTSLYEARNRTLNLAKLTGCSRENETEIIKCLRNKDPQEILLNEAFVVPYGTPLSVNFGPTVDGDFLTDMPDILLELGQFKKTQILVGVNKDEGTAFLVYGAPGFSKDNNSIITRKEFQEGLKIFFPGVSEFGKESILFHYTDWVDDQRPENYREALGDVVGDYNFICPALEFTKKFSEWGNNAFFYYFEHRSSKLPWPEWMGVMHGYEIEFVFGLPLERRDNYTKAEEILSRSIVKRWANFAKYGNPNETQNNSTSWPVFKSTEQKYLTLNTESTRIMTKLRAQQCRFWTSFFPKVLEMTGNIDEAEWEWKAGFHRWNNYMMDWKNQFNDYTSKKESCVGL
- Km [5]: 40 µM
- CPT-11 mediated cytotoxicity in SW48 colon carcinoma cells [2]: significantly enhanced
- level of carboxylesterase activity relative to F227A [6]: approximately 50%
- conversion of CPT-11 ([3]; HPLC assay, conditioned media): less than 1%
- CPT-11 conversion to SN-38 (SN-38 formation by HPLC), in words ([3]; conditioned media): did not show detectable levels of SN-38

B2: 6-6 variant (protein)
chain: EDDIIIATKNGKVRGMNLTVFGGTVTAFLGIPYAQPPLGRLRFKKPQSLTKWSDIWNATKYANSCCQNIDQSFPGFHGSEMWNPNTDLSEDCLYLNVWIPAPKPKNATVLIWIYGGGFQTGTSSLHVYDGKFLARVERVIVVSMNYRVGALGFLALPGNPEAPGNMGLFDQQLALQWVQKNIAAFGGNPKSVTLFGESAGAASVSLHLLSPGSHSLFTRAILQSGSANAPWAVTSLYEARNRTLNLAKLTGCSRENETEIIKCLRNKDPQEILLNEAFVVPYGTPLGVNFGPTVDGDFLTDMPDILLELGQFKKTQILVGVNKDEGTWFLVMGAPGFSKDNNSIITRKEFQEGLKIFFPGVSEFGKESILFHYTDWVDDQRPENYREALGDVVGDYNFICPALEFTKKFSEWGNNAFFYYFEHRSSKLPWPEWMGVMHGYEIEFVFGLPLERRDNYTKAEEILSRSIVKRWANFAKYGNPNETQNNSTSWPVFKSTEQKYLTLNTESTRIMTKLRAQQCRFWTSFFPKVLEMTGNIDEAEWEWKAGFHRWNNYMMDWKNQFNDYTSKKESCVGL
modifications: synthetic butyrylcholinesterase variant
- CPT-11 mediated cytotoxicity in SW48 colon carcinoma cells [2]: increased tumor cell cytotoxicity

B3: AME133 Fab (humanized anti-CD20 with fully human germline framework regions) (Fab, V domains shown)
VH: EVQLVQSGAEVKKPGESLKISCKGSGRTFTSYNMHWVRQMPGKGLEWMGAIYPLTGDTSYNQKSKLQVTISADKSISTAYLQWSSLKASDTAMYYCARSTYVGGDWQFDVWGKGTTVTVSS
VL: EIVLTQSPGTLSLSPGERATLSCRASSSVPYIHWYQQKPGQAPRLLIYATSALASGIPDRFSGSGSGTDFTLTISRLEPEDFAVYYCQQWLSNPPTFGQGTKLEIKR
notes: also called monovalent Fab
- Kd (CD20): 1 nM
